Experimental data reported in patent US20250152729A1 (CANCER RESEARCH TECHNOLOGY, published 2025).
Read-outs that look alike come from different tables or passages of the source.

T1: human SEMA4A expressed on cells (UniProt ID Q9H3S1, isoform 1) (human, UniProt Q9H3S1 33-761)
T1 sequence: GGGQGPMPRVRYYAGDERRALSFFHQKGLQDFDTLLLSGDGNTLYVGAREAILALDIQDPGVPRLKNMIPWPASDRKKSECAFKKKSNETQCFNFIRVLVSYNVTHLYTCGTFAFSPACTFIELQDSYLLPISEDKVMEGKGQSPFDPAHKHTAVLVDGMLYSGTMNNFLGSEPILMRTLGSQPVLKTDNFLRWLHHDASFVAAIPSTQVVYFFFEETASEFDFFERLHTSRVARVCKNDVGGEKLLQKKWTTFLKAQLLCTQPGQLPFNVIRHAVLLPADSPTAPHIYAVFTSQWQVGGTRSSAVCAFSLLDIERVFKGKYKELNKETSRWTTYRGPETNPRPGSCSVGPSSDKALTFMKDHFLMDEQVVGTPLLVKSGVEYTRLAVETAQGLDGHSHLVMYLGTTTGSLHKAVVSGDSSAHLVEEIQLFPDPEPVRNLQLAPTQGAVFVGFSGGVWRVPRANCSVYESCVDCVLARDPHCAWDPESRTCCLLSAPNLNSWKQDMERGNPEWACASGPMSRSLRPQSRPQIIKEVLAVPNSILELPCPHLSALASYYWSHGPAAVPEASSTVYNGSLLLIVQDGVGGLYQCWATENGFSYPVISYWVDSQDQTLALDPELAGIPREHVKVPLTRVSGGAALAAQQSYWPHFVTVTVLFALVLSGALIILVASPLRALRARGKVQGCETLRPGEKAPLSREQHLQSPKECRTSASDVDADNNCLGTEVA

T2: human SEMA4B expressed on expi293 cells (human, UniProt Q9NPR2 44-837)
T2 construct: whole, on cells
T2 sequence (looked up): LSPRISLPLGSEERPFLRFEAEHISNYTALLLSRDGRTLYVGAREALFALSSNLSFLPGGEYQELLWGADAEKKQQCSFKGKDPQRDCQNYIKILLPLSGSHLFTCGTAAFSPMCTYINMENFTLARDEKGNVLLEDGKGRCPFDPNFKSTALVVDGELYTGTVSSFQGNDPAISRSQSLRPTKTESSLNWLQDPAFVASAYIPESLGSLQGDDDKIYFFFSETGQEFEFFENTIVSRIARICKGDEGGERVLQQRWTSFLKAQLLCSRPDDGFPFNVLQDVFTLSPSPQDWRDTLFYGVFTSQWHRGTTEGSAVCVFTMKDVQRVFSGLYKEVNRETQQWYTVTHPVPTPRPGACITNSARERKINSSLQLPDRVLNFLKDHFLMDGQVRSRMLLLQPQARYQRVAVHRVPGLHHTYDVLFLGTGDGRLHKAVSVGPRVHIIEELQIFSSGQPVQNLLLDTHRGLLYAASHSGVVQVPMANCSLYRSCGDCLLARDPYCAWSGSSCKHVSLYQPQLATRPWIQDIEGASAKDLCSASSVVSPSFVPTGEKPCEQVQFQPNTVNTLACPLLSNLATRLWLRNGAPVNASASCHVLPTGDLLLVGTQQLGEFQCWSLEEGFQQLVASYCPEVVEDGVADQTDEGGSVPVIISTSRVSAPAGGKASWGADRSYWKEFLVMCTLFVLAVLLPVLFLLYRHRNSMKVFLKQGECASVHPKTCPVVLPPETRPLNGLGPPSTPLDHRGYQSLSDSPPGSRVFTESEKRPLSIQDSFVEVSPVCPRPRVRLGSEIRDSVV


Experiments:
[1] = biological target: T1, human SEMA4A expressed on cells …; test: cell-based or functional assay
[2] = biological target: T1, human SEMA4A expressed on cells …; test: cell-based or functional assay; remark: listed apart in the source
[3] = biological target: T1, human SEMA4A expressed on cells …; test: flow cytometry on NCI-H929 cells endogenously expressing human SEMA4A, 10-point titration
Experimental: Binding of SEMA4A specific IgGs to membrane-bound SEMA4A was evaluated using flow cytometry in NCI-H929 cells that endogenously express human SEMA4A. Binding assays were performed by incubating the anti-SEMA4A antibodies with 200,000 cells for 3 hours at 4° C. followed by two washes with PBS, 1% (w/v) BSA (FACS buffer). A range of antibody concentrations were evaluated using a 10-point, 3-fold dilution series. Cells were then incubated with Alexa Fluor 647 conjugated AffiniPure Fab Fragment Goat Anti-Human IgG (H+L) (Jackson Immunoresearch Europe Limited, Ely, Cambridgeshire) diluted 1:100, at 4° C. for 1 hour, followed by two washes in FACS buffer. Cells were then stained with LIVE/DEAD™ Fixable Violet Dead Cell Stain (Life Technologies, L34955) for 30 minutes at 4° C., followed by two washes in FACS buffer. Cells were then fixed using BD Cell Fix (BD Biosciences, 340181). Fluorescence of live, single cells was measured using a Novocyte™ 3000 flow cytometer and Novoexpress software (Acea Biosciences, Inc, San Diego, CA). Data were analysed using FlowJo software (FlowJo, LLC, Ashland, OR). Mean fluorescence intensity values were plotted against antibody conjugate concentrations and KD values determined using Prism software (GraphPad Software Inc, La Jolla, CA).

[4] = biological target: T2, human SEMA4B expressed on expi293 cells; test: Mirrorball direct binding, dilution series on expi293 cells transiently transfected with human SEMA4B, anti-human Alexa Fluor 647
Experimental: To determine the specificity profile of each purified human Alya IgG1 conjugated to McMMAF, a dilution series was tested for binding to human SEMA4A, human SEMA4B and mock transfected cells (transient transfections set up in expi 293 cells.) The three assays employed methods described in section 2.3, using the appropriate cells and substituting the un-purified scFv periplasmic preparation with the human Alya IgG1 conjugated to McMMAF. Data was analysed as Count x median mean intensity (x FLU).

[5] = biological target: T1, human SEMA4A expressed on cells …; test: cell-based or functional assay; remark: listed apart in the source

Binder | Average MM1.S IC50 [pM], cell kill [1] [pM] | Average NCI-H929 IC50 [pM], cell kill [1] [pM] | EC50 (nM), Fab-pHast internalisation into NCI-H929 [2] [nM] | Fold-Change at 6 hours (10 nM), Fab-pHast internalisation [2] [fold] | Kd [3] [nM] | binding result [4] | Average KARPAS 25 IC50 [pM], cell kill [5] [pM] | Average MM1.S IC50 [pM], cell kill [5] [pM] | Average NCI-H929 IC50 [pM], cell kill [5] [pM]
C0120905 human Alya IgG1 conjugated to McMMAF (antibody, V domains shown, McMMAF on the engineered cysteines 239iCys and S442C (EU numbering) of the heavy constant region, Antibody-drug conjugate; human IgG1 Alya constant; also called C0120905-McMMAF) VH: not shown VL: NFMLTQPHSVSESPGKTVTISCTGSGGNIVDNFVQWHQQRPGSAPRTVIYEDDQRPSGVPDRFSASVDSSSNSGTLSISGLKTEDEADYYCQSYDGANRWVFGGGTKLTVL | 63.5 | 90.8 | 3.72 | 91 | 34.3 | no binding (tested: log (M) -8 (1e-8 M)) | – | – | –
5Hg1-5Lg1 human Alya IgG1 conjugated to McMMAF (antibody, V domains shown, McMMAF on the engineered cysteines 239iCys and S442C (EU numbering) of the heavy constant region, Antibody-drug conjugate; human IgG1 Alya constant; also called 5Hg1/5Lg1-McMMAF) VH: QVQLVQSGAEVKKPGASVKVSCKASGYTFTDYWMHWVRQAPGQGLEWMGAIDTSDSYTSYNQKFKGRVTMTRDTSTSTVYMELSSLRSEDTAVYYCARDYGNFYYYAMDYWGQGTLVTVSS VL: QAVVTQEPSLTVSPGGTVTLTCRSSTGAVTTSNYANWFQQKPGQAPRTLIYGTNNRAPWTPARFSGSLLGGKAALTLSGAQPEDEAEYYCALWYSNHWVFGGGTKLTVL | – | – | 0.54 | 121 | 1.46 | no binding (tested: log (M) -8 (1e-8 M)) | 625 | 35.8 | 100
5Hg2-5Lg2 human Alya IgG1 conjugated to McMMAF (antibody, V domains shown, McMMAF on the engineered cysteines 239iCys and S442C (EU numbering) of the heavy constant region, Antibody-drug conjugate; human IgG1 Alya constant; also called 5Hg2/5Lg2-McMMAF) VH: QVQLVQSGAEVKKPGASVKVSCKASGYTFTDYWMHWVRQAPGQRLEWMGAIDTSDSYTSYNQKFKGRVTITRDTSASTAYMELSSLRSEDTAVYYCARDYGNFYYYAMDYWGQGTLVTVSS VL: QAVVTQEPSLTVSPGGTVTLTCRSSTGAVTTSNYANWFQQKPGQAPRTLIYGTNNRAPWTPARFSGSLLGGKAALTLLGAQPEDEAEYYCALWYSNHWVFGGGTKLTVL | – | – | 0.59 | 103 | 2.46 | no binding (tested: log (M) -8 (1e-8 M)) | 181 | 10.7 | 34.3
C0120903 human Alya IgG1 conjugated to McMMAF (antibody, V domains shown, McMMAF on the engineered cysteines 239iCys and S442C (EU numbering) of the heavy constant region, Antibody-drug conjugate; human IgG1 Alya constant; also called C0120903-McMMAF) VH: EVQLVQSGAEVKKPGSSMKVSCKASGGTFNSYTINWVRQAPGQGLEWVGGFIPIFGTADYAQKFHGRVAITADESMSTAYMELSSLRSEDTAVYYCARAPLGSEPFDYWGQGTMVTVSS VL: SYVLTQPPSVSVAPGQTARITCGGNNIGSKSVHWYQQKPGQAPVLVVYDDSDRPSGIPERFSGSNSGNTATLTISRVEAGDEADYYCQVWDSSSDHLVFGGGTKLTVL | 8.8 | 7.1 | 0.98 | 118 | 9.88 | no binding (tested: log (M) -8 (1e-8 M)) | – | – | –
C0120917 human Alya IgG1 conjugated to McMMAF (antibody, V domains shown, McMMAF on the engineered cysteines 239iCys and S442C (EU numbering) of the heavy constant region, Antibody-drug conjugate; human IgG1 Alya constant; also called C0120917-McMMAF) VH: not shown VL: NFMLTQPHSVSESPGKTVTISCTASGDTLDNKYVNWYQVRPGSAPATLIFHYEERDSGVPDRFSGSFDASSNSASLTISGLQTADEADYFCQSYDSKRDNLVVFGGGTKVTVL | 10.9 | 18.1 | 8.29 | 53 | 40.5 | no binding (tested: log (M) -8 (1e-8 M)) | – | – | –
C0120914 human Alya IgG1 conjugated to McMMAF (antibody, V domains shown, McMMAF on the engineered cysteines 239iCys and S442C (EU numbering) of the heavy constant region, Antibody-drug conjugate; human IgG1 Alya constant; also called C0120914-McMMAF) VH: QVQLQESGPGLVKPSETLSLTCTVSGGSVSSGRYDWSWIRQPPGKGLEWIGHIYYTGITDYNPSLRSRVTISADKPKNQFSLKLNSVTAADTAVYYCARGPFFDPWGQGTMVTVSS VL: QSVLTQPPSVSVAPGQTASLTCGANNIGSKSVQWYQQKPGQAPVLVVYDGSDRPSGIPDRFSGSSSENTATLTISRVEAGDEADYYCQLWDSVTDRPVFGGGTKVTVL | 1.1 | 2.5 | 3.29 | 112 | 9.04 | no binding (tested: log (M) -8 (1e-8 M)) | – | – | –
C0120918 human Alya IgG1 conjugated to McMMAF (antibody, V domains shown, McMMAF on the engineered cysteines 239iCys and S442C (EU numbering) of the heavy constant region, Antibody-drug conjugate; human IgG1 Alya constant; also called C0120918-McMMAF) VH: not shown VL: SYELTQPPSVSVSPGQTARITCSGDALPKQYAYWYQQKPGQAPVLVIYKDSERPSGIPERFSGSSSGTTVTLTISGVQAEDEADYYCQSADSSGTWVFGGGTKVTVL | 13.2 | 55.8 | 3.62 | 79 | 1.6 | no binding (tested: log (M) -8 (1e-8 M)) | – | – | –
C0120906 human Alya IgG1 conjugated to McMMAF (antibody, V domains shown, McMMAF on the engineered cysteines 239iCys and S442C (EU numbering) of the heavy constant region, Antibody-drug conjugate; human IgG1 Alya constant; also called C0120906-McMMAF) VH: EVQLVQSGPEVKKPGASVKISCKASGYKLNDPGVHGVSWVRQAPGQGLEWMGWISTLNGDTRYAQKFQGRVTMATDSSTSTIYMDLRSLKSDDTALYYCARDDYTAIFDFWGRGTLVTVSS VL: QSVLTQPPSVSVAPGQTASITCGGSNIGSQSVHWYQQKPGQAPVLVVYDDSDRPSGIPERFSGSKSGNTASLILSRVEAGDEADYYCQVWDSSTDHHVFGTGTKVTVL | 4.7 | 3 | 4.1 | 116 | 9.67 | no binding (tested: log (M) -8 (1e-8 M)) | – | – | –
